# What was measured:
# HeLa Kyoto [1] = assay: solubility in G1/S (NP-40 vs SDS abundance) (log2 ratio); higher = more soluble; conditions: cell cycle stage: G1/S
# HeLa Kyoto [2] = assay: melting temperature (median over replicates), in situ; higher = more thermally stable
# HeLa Kyoto [3] = assay: solubility change mitosis vs G1/S (difference of NP-40 vs SDS log2 ratios) (log2 ratio difference); higher = more soluble in mitosis
# HeLa Kyoto [4] = assay: thermal stability score vs G1/S (z-score of summed log2 fold changes over temperatures); higher = more thermally stable than in G1/S
# [5] = cell cycle stage: early G1 (4.5 h after nocodazole release)
# 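For melting temperature (median over replicates), in situ in this document: HeLa Kyoto cells synchronized by double thymidine or nocodazole block, proteins quantified by TMT10plex mass spectrometry, three independent biological replicates.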
# 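For solubility change mitosis vs G1/S (difference of NP-40 vs SDS log2 ratios) in this document: synchronized HeLa Kyoto cells (double thymidine block for G1/S, nocodazole release for mitosis), protein amounts in NP-40 versus SDS lysates quantified by mass spectrometry, three biological replicates.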
# 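For solubility in G1/S (NP-40 vs SDS abundance) in this document: HeLa Kyoto cells arrested at G1/S by double thymidine block, proteins quantified by TMT10plex mass spectrometry in mild NP-40 versus SDS extracts, three biological replicates.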
# 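For thermal stability score vs G1/S (z-score of summed log2 fold changes over temperatures) in this document: synchronized HeLa Kyoto cells, proteins quantified by TMT10plex mass spectrometry, three biological replicates, mitosis taken 0.5 h after nocodazole release, G1/S directly after double thymidine block.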
Sequence,solubility in G1/S (log2) (HeLa Kyoto [1]),melting temperature (HeLa Kyoto [2]; cell cycle stage: G1/S) [°C],melting temperature (HeLa Kyoto [2]; cell cycle stage: mitosis) [°C],solubility change mitosis (log2) (HeLa Kyoto [3]),thermal stability score (HeLa Kyoto [4]; [5]),thermal stability score (HeLa Kyoto [4]; cell cycle stage: mitosis)
MSEVTRSLLQRWGASFRRGADFDSWGQLVEAIDEYQILARHLQKEAQAQHNNSEFTEEQKKTIGKIATCLELRSAALQSTQSQEEFKLEDLKKLEPILKNILTYNKEFPFDVQPVPLRRILAPGEEENLEFEEDEEEGGAGAGSPDSFPARVPGTLLPRLPSEPGMTLLTIRIEKIGLKDAGQCIDPYITVSVKDLNGIDLTPVQDTPVASRKEDTYVHFNVDIELQKHVEKLTKGAAIFFEFKHYKPKKRFTSTKCFAFMEMDEIKPGPIVIELYKKPTDFKRKKLQLLTKKPLYLHLHQTLHKE [AIDA],0.32,50.9,50.5,0.0508,-0.484,-0.48
MSFIDPYQHIIVEHQYSHKFTVVVLRATKVTKGAFGDMLDTPDPYVELFISTTPDSRKRTRHFNNDINPVWNETFEFILDPNQENVLEITLMDANYVMDETLGTATFTVSSMKVGEKKEVPFIFNQVTEMVLEMSLEVCSCPDLRFSMALCDQEKTFRQQRKEHIRESMKKLLGPKNSEGLHSARDVPVVAILGSGGGFRAMVGFSGVMKALYESGILDCATYVAGLSGSTWYMSTLYSHPDFPEKGPEEINEELMKNVSHNPLLLLTPQKVKRYVESLWKKKSSGQPVTFTDIFGMLIGETLIHNRMNTTLSSLKEKVNTAQCPLPLFTCLHVKPDVSELMFADWVEFSPYEIGMAKYGTFMAPDLFGSKFFMGTVVKKYEENPLHFLMGVWGSAFSILFNRVLGVSGSQSRGSTMEEELENITTKHIVSNDSSDSDDESHEPKGTENEDAGSDYQSDNQASWIHRMIMALVSDSALFNTREGRAGKVHNFMLGLNLNTSYPLSPLSDFATQDSFDDDELDAAVADPDEFERIYEPLDVKSKKIHVVDSGLTFNLPYPLILRPQRGVDLIISFDFSARPSDSSPPFKELLLAEKWAKMNKLPFPKIDPYVFDREGLKECYVFKPKNPDMEKDCPTIIHFVLANINFRKYRAPGVPRETEEEKEIADFDIFDDPESPFSTFNFQYPNQAFKRLHDLMHFNTLNNIDVIKEAMVESIEYRRQNPSRCSVSLSNVEARRFFNKEFLSKPKA [PLA2G4A],-0.0367,50.3,50.1,-0.0979,1.55,0.83
MSFPKAPLKRFNDPSGCAPSPGAYDVKTLEVLKGPVSFQKSQRFKQQKESKQNLNVDKDTTLPASARKVKSSESKESQKNDKDLKILEKEIRVLLQERGAQDRRIQDLETELEKMEARLNAALREKTSLSANNATLEKQLIELTRTNELLKSKFSENGNQKNLRILSLELMKLRNKRETKMRGMMAKQEGMEMKLQVTQRSLEESQGKIAQLEGKLVSIEKEKIDEKSETEKLLEYIEEISCASDQVEKYKLDIAQLEENLKEKNDEILSLKQSLEENIVILSKQVEDLNVKCQLLEKEKEDHVNRNREHNENLNAEMQNLKQKFILEQQEREKLQQKELQIDSLLQQEKELSSSLHQKLCSFQEEMVKEKNLFEEELKQTLDELDKLQQKEEQAERLVKQLEEEAKSRAEELKLLEEKLKGKEAELEKSSAAHTQATLLLQEKYDSMVQSLEDVTAQFESYKALTASEIEDLKLENSSLQEKAAKAGKNAEDVQHQILATESSNQEYVRMLLDLQTKSALKETEIKEITVSFLQKITDLQNQLKQQEEDFRKQLEDEEGRKAEKENTTAELTEEINKWRLLYEELYNKTKPFQLQLDAFEVEKQALLNEHGAAQEQLNKIRDSYAKLLGHQNLKQKIKHVVKLKDENSQLKSEVSKLRCQLAKKKQSETKLQEELNKVLGIKHFDPSKAFHHESKENFALKTPLKEGNTNCYRAPMECQESWK [HMMR],0.497,49.2,50.1,0.189,-0.359,-1.33
MSFSEMNRRTLAFRGGGLVTASGGGSTNNNAGGEASAWPPQPQPRQPPPPAPPALQPPNGRGADEEVELEGLEPQDLEASAGPAAGAAEEAKELLLPQDAGGPTSLGGGAGGPLLAERNRRTLAFRGGGGGGLGNNGSSRGRPETSVWPLRHFNGRGPATVDLELDALEGKELMQDGASLSDSTEDEEEGASLGDGSGAEGGSCSSSRRSGGDGGDEVEGSGVGAGEGETVQHFPLARPKSLMQKLQCSFQTSWLKDFPWLRYSKDTGLMSCGWCQKTPADGGSVDLPPVGHDELSRGTRNYKKTLLLRHHVSTEHKLHEANAQESEIPSEEGYCDFNSRPNENSYCYQLLRQLNEQRKKGILCDVSIVVSGKIFKAHKNILVAGSRFFKTLYCFSNKESPNQNNTTHLDIAAVQGFSVILDFLYSGNLVLTSQNAIEVMTVASYLQMSEVVQTCRNFIKDALNISIKSEAPESVVVDYNNRKPVNRDGLSSSRDQKIASFWATRNLTNLASNVKIENDGCNVDEGQIENYQMNDSSWVQDGSPEMAENESEGQTKVFIWNNMGSQGIQETGKTRRKNQTTKRFIYNIPPNNETNLEDCSVMQPPVAYPEENTLLIKEEPDLDGALLSGPDGDRNVNANLLAEAGTSQDGGDAGTSHDFKYGLMPGPSNDFKYGLIPGTSNDFKYGLIPGASNDFKYGLLPESWPKQETWENGESSLIMNKLKCPHCSYVAKYRRTLKRHLLIHTGVRSFSCDICGKLFTRREHVKRHSLVHKKDKKYKCMVCKKIFMLAASVGIRHGSRRYGVCVDCADKSQPGGQEGVDQGQDTEFPRDEEYEENEVGEADEELVDDGEDQNDPSRWDESGEVCMSLDD [ZBTB10],-0.114,–,53.4,-0.0451,-0.229,-0.231
MSGAALGLEIVFVFFLALFLLHRYGDFKKQHRLVIIGTLLAWYLCFLIVFILPLDVSTTIYNRCKHAAANSSPPENSNITGLYATANPVPSQHPCFKPWSYIPDGIMPIFWRVVYWTSQFLTWILLPFMQSYARSGGFSITGKIKTALIENAIYYGTYLLIFGAFLIYVAVNPHLHLEWNQLQTIGIAAANTWGLFLLVLLLGYGLVEIPRSYWNGAKRGYLLMKTYFKAAKLMTEKADAEENLEDAMEEVRKVNESIKYNHPLRKCVDTILKKCPTEYQEKMGRNMDDYEDFDEKHSIYPSEKSLVKLHKQVIYSVQRHRRTQVQWQILLEQAFYLEDVAKNETSATHQFVHTFQSPEPENRFIQYFYNPTFEWYWECLLRPWFYKILAVVLSIFSVIVVWSECTFFSTTPVLSLFAVFIQLAEKTYNYIYIEIACFLSIFFLSICVYSTVFRIRVFNYYYLASHHQTDAYSLLFSGMLFCRLTPPLCLNFLGLTHMDSSISHKNTQPTAYTSIMGSMKVLSFIADGFYIYYPMLVVILCIATYFSLGTRCLNLLGFQQFMGDDDMTSDLVNEGKELIRKEKRKRQRQEEGENRRREWKERYGHNREDSTRNRNIHTDPKESNFSDVNTNRSAFKYTRANNRTERDRIELLQDAEPLDFNAETFTDDPLESESGRYQPGGRYLSMSRSDIFNDV [LMBRD2],-0.331,55.4,53.8,-0.00686,-0.0528,-1.48
MSGEENPASKPTPVQDVQGDGRWMSLHHRFVADSKDKEPEVVFIGDSLVQLMHQCEIWRELFSPLHALNFGIGGDGTQHVLWRLENGELEHIRPKIVVVWVGTNNHGHTAEQVTGGIKAIVQLVNERQPQARVVVLGLLPRGQHPNPLREKNRQVNELVRAALAGHPRAHFLDADPGFVHSDGTISHHDMYDYLHLSRLGYTPVCRALHSLLLRLLAQDQGQGAPLLEPAP [PAFAH1B3],0.751,50.6,51,-0.0232,0.482,1.01
MSGESARSLGKGSAPPGPVPEGSIRIYSMRFCPFAERTRLVLKAKGIRHEVININLKNKPEWFFKKNPFGLVPVLENSQGQLIYESAITCEYLDEAYPGKKLLPDDPYEKACQKMILELFSKVPSLVGSFIRSQNKEDYAGLKEEFRKEFTKLEEVLTNKKTTFFGGNSISMIDYLIWPWFERLEAMKLNECVDHTPKLKLWMAAMKEDPTVSALLTSEKDWQGFLELYLQNSPEACDYGL [GSTO1],0.508,53.7,54.2,-0.0339,1.3,-0.166
MSGFSTEERAAPFSLEYRVFLKNEKGQYISPFHDIPIYADKDVFHMVVEVPRWSNAKMEIATKDPLNPIKQDVKKGKLRYVANLFPYKGYIWNYGAIPQTWEDPGHNDKHTGCCGDNDPIDVCEIGSKVCARGEIIGVKVLGILAMIDEGETDWKVIAINVDDPDAANYNDINDVKRLKPGYLEATVDWFRRYKVPDGKPENEFAFNAEFKDKDFAIDIIKSTHDHWKALVTKKTNGKGISCMNTTLSESPFKCDPDAARAIVDALPPPCESACTVPTDVDKWFHHQKN [PPA1],0.43,54.1,54.2,0.0519,0.184,-1.97
MSGGKYVDSEGHLYTVPIREQGNIYKPNNKAMADELSEKQVYDAHTKEIDLVNRDPKHLNDDVVKIDFEDVIAEPEGTHSFDGIWKASFTTFTVTKYWFYRLLSALFGIPMALIWGIYFAILSFLHIWAVVPCIKSFLIEIQCISRVYSIYVHTVCDPLFEAVGKIFSNVRINLQKEI [CAV1],-0.297,57.3,54.6,-0.0544,-2.45,-3.05

# From the supplement of paper PMC5998384
